Laboratory results as given in PMC7943604.

Columns and labels:
[1] = target: COPY^o2 (Atto532-stathmin-Atto647N); experiment: stopped-flow fluorescence (sensitized emission of the FRET sensor); COPY^o2 or phosphorylated COPY^o2 constant at 200 nM, tubulin titrated; dissociation at 200 nM COPY^o2 and 4 µM tubulin by displacement with 60 µM unlabeled stathmin; 25 °C; 80 mM PIPES pH 6.8, 75 mM KCl, 2 mM MgCl2, 20 mM β-mercaptoethanol, 60 µM GTP
phosphorylated COPY^o2 = experiment: as above

Q: Which results are given for “tubulin (αβ-heterodimer) (from UniProt P02550 1-451; P02554 1-445) (complex)”?
A: KD, high affinity site [1]: 0.03 µM; KD, low-affinity site [1]: 2 µM; koff, high affinity site [1]: 0.048 s⁻¹; koff, low-affinity site [1]: 1.86 s⁻¹; kon, high affinity site [1]: 1.6e+06 M⁻¹ s⁻¹; kon, low-affinity site [1]: 900000 M⁻¹ s⁻¹; stoichiometry N [1]: 2; KD, high affinity site (phosphorylated COPY^o2): 610 µM; KD, low-affinity site (phosphorylated COPY^o2): 12 µM; koff, high affinity site (phosphorylated COPY^o2): 8 s⁻¹; koff, low-affinity site (phosphorylated COPY^o2): 2.3 s⁻¹; kon, high affinity site (phosphorylated COPY^o2): 12800 M⁻¹ s⁻¹; kon, low-affinity site (phosphorylated COPY^o2): 170000 M⁻¹ s⁻¹
